Consider one molecule from patent US20230279088A1 (NATIONAL RESEARCH COUNCIL OF CANADA, published 2023).

The test deals with T1, Aβ1-42 oligomers (Aβ1-42 preparation consisting predominantly of higher oligomers) (UniProt P05067 672-713).
T1 construct: domain: Aβ1-42; Oligomeric aggregate; also called Aβ oligomers; Aβ-oligomer
Briefly: ELISA: ABP immobilized on the plate, exposed to Aβ, bound Aβ detected with 6E10 or 4G8. The protocol:
ELISA: Aβ-binding assays were carried out as described by Chakravarthy et al (2013). Maxisorp 96-well ELISA plates (Nunc) were coated with (100-500 ng/well) either free ABP (synthetic) or various FC5-ABP constructs overnight at 4° C. in PBS. The wells were blocked with 1% BSA in TBS-T for 30 min and then incubated with Af31-42 preparations consisting predominantly of either monomer and dimers (Mo) or higher oligomers (010 in TBS-T at RT for 45 min with gentle agitation. Following three TBS-T washes, bound Aβ was detected by incubating HRP-conjugated Aβ-specific antibody (6E10 or 4G8) for 90 min at RT in TBS-T. The bound antibody was detected with SureBlueTM TMB reagent kit (KPL) by colorimetric measurement at 450 nm according to manufacturer's instructions.
A Coomassie blue stained gel after separation of FC5 fusion molecules by SDS-PAGE (NR-non-reducing and R-reducing conditions) indicating successful production of recombinant fusion molecule is shown in FIG. 2A. Free or fused ABP was immobilized on ELISA plate by coating samples in phosphate buffered saline (PBS) overnight at 4° C. and exposed to Aβ preparations as described by Chakravarthy et al., 2013. Bound Aβ was detected with Aβ-specific antibody 6E10 or 4G8 (Chakravarthy et al., 2013). […] Bound Aβ was detected with specific antibody as above. […]

T1 sequence (P05067 672-713 limits assumed): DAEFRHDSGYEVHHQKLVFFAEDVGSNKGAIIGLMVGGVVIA

Regarding KTFKTRKASAQASLASKDKTPKSKSKKRNSTQLKSRVKNI (also called P4-5 peptide (ABP)) [free ABP (synthetic amyloid-binding peptide)], the binding result is listed as “binds”.
